One molecule from PMC6932757, “Inhibition of FLT1 ameliorates muscular dystrophy phenotype by increased vasculature in a mouse model of Duchenne muscular dystrophy” (PLoS Genetics, 2019) can be followed below.

The target in the test is T1, mouse FLT1-FC chimeric protein with His-tag (mouse, UniProt P35969 23-759).
T1 construct: FLT1 (VEGF receptor-1, VEGFR1), mouse, soluble form fused to FC; also called chimeric FLT1-FC; mouse soluble FLT1-FC chimeric protein; source: bought: R&D Systems (471-F1-100)
T1 sequence (looked up): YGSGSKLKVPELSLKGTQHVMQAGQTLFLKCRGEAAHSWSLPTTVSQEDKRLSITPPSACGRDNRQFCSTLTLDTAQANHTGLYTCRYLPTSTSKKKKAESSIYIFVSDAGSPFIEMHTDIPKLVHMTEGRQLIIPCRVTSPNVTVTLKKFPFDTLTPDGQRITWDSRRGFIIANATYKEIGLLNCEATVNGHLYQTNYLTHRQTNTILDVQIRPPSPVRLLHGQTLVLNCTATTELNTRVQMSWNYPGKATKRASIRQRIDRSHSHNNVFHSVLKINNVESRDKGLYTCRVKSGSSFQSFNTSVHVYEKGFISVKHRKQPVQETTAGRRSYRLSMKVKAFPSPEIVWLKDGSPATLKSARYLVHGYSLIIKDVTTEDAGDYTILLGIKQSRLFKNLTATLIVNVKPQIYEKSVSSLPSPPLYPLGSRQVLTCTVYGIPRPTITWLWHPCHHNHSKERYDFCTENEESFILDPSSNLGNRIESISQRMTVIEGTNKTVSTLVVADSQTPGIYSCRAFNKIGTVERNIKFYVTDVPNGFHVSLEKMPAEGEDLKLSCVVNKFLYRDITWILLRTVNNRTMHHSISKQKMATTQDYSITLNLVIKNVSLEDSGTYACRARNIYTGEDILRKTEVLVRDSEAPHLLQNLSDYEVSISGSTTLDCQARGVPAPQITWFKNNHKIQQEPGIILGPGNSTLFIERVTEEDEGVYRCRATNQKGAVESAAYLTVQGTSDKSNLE
Briefly: ELISA; mouse FLT1-FC (His-tag) coated on 96 well plates, blocked with 5% BSA; anti-FLT1 antibodies incubated, then mouse PlGF2; detected with biotin-conjugated anti-PlGF2 antibody and Streptavidin-HRP, TMB, 450 nm. The conditions noted are these: both partners purified. On the technique in general: In an ELISA, binding on a coated surface is turned into a signal by an enzyme label.

B1: recombinant mouse PlGF2 (ligand, UniProt P49764 19-158, looked up)
chain: VHSQGALSAGNNSTEVEVVPFNEVWGRSYCRPMEKLVYILDEYPDEVSHIFSPSCVLLSRCSGCCGDEGLHCVPIKTANITMQILKIPPNRDPHFYVEMTFSQDVLCECRPILETTKAERRKTKGKRKRSRNSQTEEPHP
notes: Placenta growth factor 2 (PlGF2), mouse, recombinant; probably the mature secreted protein (surmised); source: bought: R&D Systems (465-PL-010/CF)
For B1, the binding result is listed as “binds”.
